In publication PMC2879712 (Journal of cellular biochemistry, 2010):
Read-outs that look alike come from different tables or passages of the source.

Key:
RAGE (Bos taurus) [1] = target: RAGE (Bos taurus) (UniProt Q28173); conditions: cited from earlier work
RAGE (Bos taurus) [2] = target: RAGE (Bos taurus) (UniProt Q28173); conditions: cited from earlier work; remark: listed apart in the source
[3] = target: RAGE C1 domain (Homo sapiens) (UniProt Q15109); conditions: cited from earlier work
[4] = target: sRAGE-Fc sRAGE (Homo sapiens) (UniProt Q15109); conditions: cited from earlier work
[5] = target: RAGE V-domain (Mus musculus) (UniProt Q62151); conditions: cited from earlier work
[6] = target: T1, mAbGB3.1-enriched bovine RAGE (bovine, UniProt Q28173 23-416, N-glycans enriched for carboxylated glycans); assay: ELISA
T1 sequence (looked up): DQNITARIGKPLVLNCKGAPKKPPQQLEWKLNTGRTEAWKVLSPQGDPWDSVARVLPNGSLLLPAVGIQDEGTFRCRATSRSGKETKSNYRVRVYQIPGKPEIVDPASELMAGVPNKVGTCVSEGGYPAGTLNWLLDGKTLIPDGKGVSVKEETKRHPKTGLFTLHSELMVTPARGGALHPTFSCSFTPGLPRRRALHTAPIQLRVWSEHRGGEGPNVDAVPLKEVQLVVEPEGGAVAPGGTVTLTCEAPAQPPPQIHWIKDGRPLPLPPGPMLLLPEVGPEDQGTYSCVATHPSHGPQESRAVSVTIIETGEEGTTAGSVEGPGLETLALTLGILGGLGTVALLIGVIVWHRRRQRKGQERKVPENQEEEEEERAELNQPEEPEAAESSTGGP

total bovine lung RAGE = target: T2, total bovine lung RAGE (bovine, UniProt Q28173 23-416, N-glycans (native glycosylation)); assay: ELISA
T2 sequence (looked up): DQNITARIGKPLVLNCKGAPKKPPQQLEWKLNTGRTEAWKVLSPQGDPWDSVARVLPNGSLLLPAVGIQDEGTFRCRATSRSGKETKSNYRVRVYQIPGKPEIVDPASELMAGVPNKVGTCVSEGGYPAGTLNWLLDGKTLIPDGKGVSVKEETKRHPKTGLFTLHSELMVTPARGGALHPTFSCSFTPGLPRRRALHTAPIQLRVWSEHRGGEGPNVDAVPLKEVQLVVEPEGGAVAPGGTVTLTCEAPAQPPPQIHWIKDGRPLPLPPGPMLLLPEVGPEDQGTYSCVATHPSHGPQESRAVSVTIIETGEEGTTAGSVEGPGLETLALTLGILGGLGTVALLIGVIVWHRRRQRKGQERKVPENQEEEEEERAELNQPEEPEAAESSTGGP

[7] = target: His-tagged human sRAGE expressed in HL60 cells (human, UniProt Q15109 23-342, N-glycans); assay: ELISA
[8] = target: His-tagged human sRAGE expressed in HeLa cells (human, UniProt Q15109 23-342, N-glycans at N25 and N81); assay: ELISA
[9] = target: His-tagged human sRAGE expressed in U373 cells (human, UniProt Q15109 23-342, N-glycans); assay: ELISA
[10] = target: His-tagged human sRAGE expressed in H4 cells (human, UniProt Q15109 23-342, N-glycans); assay: ELISA
[11] = target: His-tagged human sRAGE expressed in HEK293 cells (human, UniProt Q15109 23-342, N-glycans); assay: ELISA
Sequence of His-tagged human sRAGE expressed in HEK293 cells (Q15109 23-342): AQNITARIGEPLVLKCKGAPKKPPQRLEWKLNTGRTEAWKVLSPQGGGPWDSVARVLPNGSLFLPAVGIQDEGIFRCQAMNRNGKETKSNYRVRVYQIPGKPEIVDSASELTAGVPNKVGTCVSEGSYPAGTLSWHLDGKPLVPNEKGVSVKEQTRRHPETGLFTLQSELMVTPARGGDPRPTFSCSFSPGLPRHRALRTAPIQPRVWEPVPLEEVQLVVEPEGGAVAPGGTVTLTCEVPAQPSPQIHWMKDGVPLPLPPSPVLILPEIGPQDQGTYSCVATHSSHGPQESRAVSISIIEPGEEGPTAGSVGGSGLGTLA

Sequence of RAGE C1 domain (Homo sapiens) (Q15109 124-221): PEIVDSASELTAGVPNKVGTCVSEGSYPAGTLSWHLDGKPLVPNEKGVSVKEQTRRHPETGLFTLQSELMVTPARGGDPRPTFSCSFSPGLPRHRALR
Sequence of His-tagged human sRAGE expressed in HL60 cells (Q15109 23-342): as the sequence (Q15109 23-342) above
Sequence of His-tagged human sRAGE expressed in H4 cells (Q15109 23-342): as above
Sequence of His-tagged human sRAGE expressed in U373 cells (Q15109 23-342): as above
Sequence of His-tagged human sRAGE expressed in HeLa cells (Q15109 23-342): as above
Sequence of sRAGE-Fc sRAGE (Homo sapiens) (Q15109 23-342): as above
Sequence of RAGE V-domain (Mus musculus) (Q62151 23-109): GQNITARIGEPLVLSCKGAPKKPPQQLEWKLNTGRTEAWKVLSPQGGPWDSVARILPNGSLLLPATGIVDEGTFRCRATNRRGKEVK

## S100A8/A9 (from UniProt P05109)
RAGE (Bos taurus) [1]
  Kd: 7.62 nM
RAGE (Bos taurus) [2]
  Kd: 34.4 nM

## S100A12 (from UniProt P80511)
[3]
  Kd: 90 nM
[4]
  Kd: 80 nM
[5]
  Kd: 90 nM

B1: recombinant human S100A12 (ligand, UniProt P80511 1-92, looked up)
chain: MTKLEEHLEGIVNIFHQYSVRKGHFDTLSKGELKQLLTKELANTIKNIKDKAVIDEIFQGLDANQDEQVDFQEFISLVAIALKAAHYHTHKE
[6]
  Kd: 133 ± 46.4 nM
Total bovine lung RAGE
  Kd: 51.8 ± 20.6 nM
[7]
  binding result: binds
[8]
  binding result: binds
[9]
  binding result: binds
[10]
  binding result: binds
[11]
  binding result: binds

B2: purified human S100A11 (ligand, UniProt P31949 1-105, looked up)
chain: MAKISSPTETERCIESLIAVFQKYAGKDGYNYTLSKTEFLSFMNTELAAFTKNQKDPGVLDRMMKKLDTNSDGQLDFSEFLNLIGGLAMACHDSFLKAVPSQKRT
[6]
  Kd: 30.9 ± 3.6 nM
Total bovine lung RAGE
  Kd: 53.1 ± 7.8 nM
